The values below come from patent US20120149104A1 (ALLERGAN, published 2012).

Assay [1] addresses T1, SNAP-25 peptide comprising amino acids 134-197 of SEQ ID NO: 5 (human). Briefly: SPR (BIAcore 3000), peptide on CM5 chip, antibody in flow. A general note: SPR reads the build-up and loss of mass on a sensor chip optically.
Assay [2] has as its target T1, SNAP-25 peptide comprising amino acids …. The assay is described as above. The source holds these as a separate data set.
The target in assay [3] is SNAP-25 peptide comprising amino acids 134-206 of SEQ ID NO: 5 (human). Described as above.
Assay [4] concerns the target T2, SNAP-25206 uncleaved substrate (in PC12 cells) (UniProt P60881 1-206).
T2 construct: domain: SNAP-25206 uncleaved substrate; also called uncleaved SNAP-25
Description: cell-based assay, Western blot of PC12 cells +/- GFP-BoNT/A-LC, ascites 1:100. (In western blotting, separated proteins are transferred to a membrane and probed.)

Assay [5] concerns the target T1, SNAP-25 peptide comprising amino acids …. Description: SPR (BIAcore 3000), peptide on CM5 chip, antibody in flow; value in parentheses, second determination not explained.
Assay [6] shares this target. Briefly: SPR (BIAcore 3000), peptide on CM5 chip, antibody in flow; value in parentheses, second determination not explained; value in parentheses (second set for 2E2A6; KD 0.405 nM, used in paragraph 239).

Substitutions are numbered along the chain they refer to. Bounds are passed on as bounds.

T2 sequence (P60881 whole entry): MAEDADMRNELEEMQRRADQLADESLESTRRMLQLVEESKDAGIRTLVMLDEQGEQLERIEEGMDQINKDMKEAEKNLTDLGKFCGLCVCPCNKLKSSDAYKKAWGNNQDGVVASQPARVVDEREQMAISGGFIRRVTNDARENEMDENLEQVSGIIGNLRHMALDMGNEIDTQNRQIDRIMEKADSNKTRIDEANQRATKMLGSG

B1: α-SNAP-25 monoclonal antibody 2E2A6 (antibody, V domains shown)
VH: QVQLQQSDAELVKPGASVKISCRASGYTFTDHSIHWVKQQPGQGLEWIGYIFPGNGNIEYNDKFKGKATLTADKSSGTAYMQLNSLTSEDSAVYFCKRMGYWGQGTSVTVSS
VL: DVLMTQTPLTLSVTIGQPASISCKSSQSLLYTNGKTYLTWLFQRPGQSPKRLIYLVSELDSGVPDRFSGSGSGTDFTLEITRVEAEDLGVYYCLQSAHFPFTFGSGTKLEIKR
On to B1, for which the “fold difference of the off rate/dissociation constant against MC-6050 and MC-6053” value in assay [1] was no less than 1 fold. Also, the Kd in assay [2] was determined as 0.09 nM; in assay [5], 0.405 nM. The off-rate (koff) in assay [2] was found to be 0.000153 s⁻¹; in assay [5] it was 6.74e-05 s⁻¹. The on-rate constant (kon) was determined as 1.7e+06 M⁻¹ s⁻¹ in assay [2] and 166000 M⁻¹ s⁻¹ in assay [6]. Also, the binding result in assay [3] was “no binding (tested: 10 µM)”; in assay [4], “no binding”.

B2: α-SNAP-25 monoclonal antibody 3C1A5 (antibody, V domains shown)
VH: QVKLQESGAELVKPGASVKISCKASGYTFTDHSIHWVKQKPGQGLEWIGYLFPGNGNFEYNEKFKGKATLTADKSSSTVYMYLNSLTSEDSAVYFCKRMGYWGQGTTVTVSS
VL: B1 VL with L3V, Y31N, F42I, K50Q, E58K, E79K, T81S, A97S
In assay [2], B2 gave a Kd of 1.33 nM, an off-rate constant (koff) of 0.000288 s⁻¹ and a kon of 217000 M⁻¹ s⁻¹. The binding result in assay [3] is “no binding (tested: 100 nM)”. For the same molecule, the binding result in assay [4] is “no binding”.

B3: α-SNAP-25 monoclonal antibody 1D3B8 (antibody, V domains shown)
VH: QVKLQESGAELVKPGASVKISCKASGYIFTDHALHWVRQKPEQGLEWIGYIFPGNGNIEYNEKFKGKATLTADKSSSTAYMQLNSLTSGDSAMYFCKKMDYWGQGTTVTVSS
VL: DVLMTQTPLSLPVSLGDQASISCRSSQSIVHSNGNTYLEWYLQKPGQSPKLLIYKVSNRFSGVPDRFSGSGSGTDFTLKISRVEAEDLGVYYCFQGSHVPPTFGAGTKLELKR
For B3, in assay [1], the “fold difference of the equilibrium disassociation constant against MC-6050 and MC-6053” value was roughly 10 fold. In assay [2], this molecule had a Kd of 0.05 nM, a koff of 5.78e-05 s⁻¹ and a kon of 1.06e+06 M⁻¹ s⁻¹. For the same molecule, the binding result in assay [3] is listed as “no binding (tested: 125 nM)”. For the same molecule, the binding result in assay [4] is recorded as “no binding”.

B4: α-SNAP-25 monoclonal antibody 2C9B10 (antibody, V domains shown)
VH: B2 VH with V79A, Y82H, R98K, G100D
VL: DIQMTQSPASLSASVGETVTITCRTTENIYSYFVWSQQRQGKSPQLRVYNAKSLAEGVPSSFNVSVSGTQFSLKINSLQPEDFGTYHCQHHYGTPYTFGGGTRLEIRR
Turning to B4, in assay [2], the affinity, expressed as Kd, was 27.1 nM; the off-rate (koff) turned out to be 0.000311 s⁻¹; the kon turned out to be 11500 M⁻¹ s⁻¹. The binding result in assay [4] is “no binding”.

A word on the Kd: it is the constant that tells how readily two partners part at equilibrium. For orientation: koff means the first-order rate constant of dissociation. What is called kon is the rate constant with which the complex forms.
